Changes are numbered by the printed parent chain.
T1: rhesus CD11a (rhesus, UniProt H9Z8N3 26-1169)
T1 construct: whole, on cells; On rhesus peripheral blood lymphocytes or leukocytes; also called rhCD11a
T1 sequence: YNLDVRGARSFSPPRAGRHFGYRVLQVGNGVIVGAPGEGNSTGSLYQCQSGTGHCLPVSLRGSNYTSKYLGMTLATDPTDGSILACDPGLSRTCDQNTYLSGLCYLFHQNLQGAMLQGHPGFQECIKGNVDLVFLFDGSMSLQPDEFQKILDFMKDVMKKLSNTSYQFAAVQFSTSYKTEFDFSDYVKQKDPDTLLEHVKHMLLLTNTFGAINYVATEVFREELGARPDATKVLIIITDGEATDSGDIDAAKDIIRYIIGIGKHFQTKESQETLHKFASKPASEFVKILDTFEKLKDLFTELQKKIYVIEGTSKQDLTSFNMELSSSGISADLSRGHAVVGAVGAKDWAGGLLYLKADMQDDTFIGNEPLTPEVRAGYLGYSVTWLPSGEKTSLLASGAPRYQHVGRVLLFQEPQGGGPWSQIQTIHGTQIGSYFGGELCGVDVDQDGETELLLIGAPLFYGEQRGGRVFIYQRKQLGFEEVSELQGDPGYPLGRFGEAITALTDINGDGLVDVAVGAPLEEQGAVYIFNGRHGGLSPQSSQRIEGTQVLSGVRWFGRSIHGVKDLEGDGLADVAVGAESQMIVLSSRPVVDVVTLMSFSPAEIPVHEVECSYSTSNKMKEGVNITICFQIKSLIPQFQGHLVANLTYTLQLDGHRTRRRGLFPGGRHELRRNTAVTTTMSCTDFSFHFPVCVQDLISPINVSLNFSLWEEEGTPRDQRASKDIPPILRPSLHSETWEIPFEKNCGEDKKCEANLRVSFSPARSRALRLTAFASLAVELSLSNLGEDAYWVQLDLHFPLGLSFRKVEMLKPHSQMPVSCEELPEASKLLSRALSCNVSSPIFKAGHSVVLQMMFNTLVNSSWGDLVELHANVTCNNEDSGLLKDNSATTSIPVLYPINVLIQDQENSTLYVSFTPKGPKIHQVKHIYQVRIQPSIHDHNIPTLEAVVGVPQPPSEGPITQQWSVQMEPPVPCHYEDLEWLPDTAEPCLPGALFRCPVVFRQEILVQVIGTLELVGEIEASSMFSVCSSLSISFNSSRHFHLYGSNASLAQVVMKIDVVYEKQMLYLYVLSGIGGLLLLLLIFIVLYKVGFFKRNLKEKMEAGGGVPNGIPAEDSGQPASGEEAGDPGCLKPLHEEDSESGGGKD

B1: HuIgG1 mutant AsnL92Ala (antibody, V domains shown)
VH: EVQLVESGGGLVQPGGSLRLSCAASGYSFTGHWMNWVRQAPGKGLEWVGMIHPSDSETRYNQKFKDRFTISVDKSKNTLYLQMNSLRAEDTAVYYCARGIYFYGTTYFDYWGQGTLVTVSS
VL: DIQMTQSPSSLSASVGDRVTITCRASKTISKYLAWYQQKPGKAPKLLIYSGSTLQSGVPSRFSGSGSGTDFTLTISSLQPEDFATYYCQQHAEYPLTFGQGTKVEIKR
notes: HuIgG1 mutant, human IgG1; Kabat numbering
B2: HuIgG1 mutant HisH52Ala (antibody, V domains shown)
VH: B1 VH with H52A
VL: DIQMTQSPSSLSASVGDRVTITCRASKTISKYLAWYQQKPGKAPKLLIYSGSTLQSGVPSRFSGSGSGTDFTLTISSLQPEDFATYYCQQHNEYPLTFGQGTKVEIK
notes: as for B1
B3: HuIgG1 mutant ArgH58Ala (antibody, V domains shown)
VH: B1 VH with R59A
VL: B2 VL
notes: as for B1
B4: HuIgG1 mutant GluL93Ala (antibody, V domains shown)
VH: B1 VH
VL: B1 VL with A92N, E93A
notes: as for B1
B5: HuIgG1 mutant SerL50Ala (antibody, V domains shown)
VH: B1 VH
VL: B1 VL with S50A, A92N
notes: as for B1
B6: HuIgG1 mutant H2A3 (antibody, V domains shown)
VH: B1 VH with H52A, S56A
VL: B2 VL
notes: as for B1
B7: HuIgG1 mutant LysH73Arg (antibody, V domains shown)
VH: B1 VH with K74R
VL: B2 VL
notes: as for B1
B8: HuIgG1 mutant AspH65Ala (antibody, V domains shown)
VH: B1 VH with D66A
VL: B2 VL
notes: as for B1
B9: HuIgG1 mutant GlnH61Ala (antibody, V domains shown)
VH: B1 VH with Q62A
VL: B2 VL
notes: as for B1
B10: HuIgG1 mutant ThrL53Ala (antibody, V domains shown)
VH: B1 VH
VL: B1 VL with T53A, A92N
notes: as for B1
B11: HuIgG1 mutant L1 (antibody, V domains shown)
VH: B1 VH
VL: B1 VL with K27A, T28A, S30A, K31A, A92N
notes: as for B1
B12: HuIgG1 mutant LysH62Ala (antibody, V domains shown)
VH: B1 VH with K63A
VL: B2 VL
notes: as for B1
B13: HuIgG1 mutant H2A2 (antibody, V domains shown)
VH: B1 VH with S54A, S56A
VL: B2 VL
notes: as for B1
B14: HuIgG1 mutant LysH64Ala (antibody, V domains shown)
VH: B1 VH with K65A
VL: B2 VL
notes: as for B1
B15: HuIgG1 mutant GlyH31Ala (antibody, V domains shown)
VH: B1 VH with G31A
VL: B2 VL
notes: as for B1
B16: HuIgG1 mutant SerH55Asn (antibody, V domains shown)
VH: B1 VH with S56N
VL: B2 VL
notes: as for B1
B17: HuIgG1 mutant ThrH100aAla (antibody, V domains shown)
VH: B1 VH with T105A
VL: B2 VL
notes: as for B1
B18: HuIgG1 mutant LysH73Ala (antibody, V domains shown)
VH: B1 VH with K74A
VL: B2 VL
notes: as for B1
B19: HuIgG1 mutant TyrH100cAla (antibody, V domains shown)
VH: B1 VH with Y107A
VL: B2 VL
notes: as for B1
B20: HuIgG1 mutant HisH32Ala (antibody, V domains shown)
VH: B1 VH with H32A
VL: B2 VL
notes: as for B1
B21: HuIgG1 mutant SerL52Ala (antibody, V domains shown)
VH: B1 VH
VL: B1 VL with S52A, A92N
notes: as for B1
B22: HuIgG1 mutant TyrH99Ala (antibody, V domains shown)
VH: B1 VH with Y103A
VL: B2 VL
notes: as for B1
B23: HuIgG1 mutant TyrL94Ala (antibody, V domains shown)
VH: B1 VH
VL: B1 VL with A92N, Y94A
notes: as for B1
B24: HuIgG1 mutant ThrH100bAla (antibody, V domains shown)
VH: B1 VH with T106A
VL: B2 VL
notes: as for B1
B25: HuIgG1 mutant H1 (antibody, V domains shown)
VH: B1 VH with S28A, T30A, H32A
VL: B2 VL
notes: as for B1
B26: HuIgG1 mutant L2 (antibody, V domains shown)
VH: B1 VH
VL: B1 VL with S50A, S52A, T53A, A92N
notes: as for B1
B27: HuIgG1 mutant H3B (antibody, V domains shown)
VH: B1 VH with T105A, T106A, Y107A
VL: B2 VL
notes: as for B1
B28: HuIgG1 mutant SerH28Ala (antibody, V domains shown)
VH: B1 VH with S28A
VL: B2 VL
notes: as for B1
B29: HuIgG1 mutant TyrH97Ala (antibody, V domains shown)
VH: B1 VH with Y101A
VL: B2 VL
notes: as for B1
B30: HuIgG1 mutant HisH52Ser (antibody, V domains shown)
VH: B1 VH with H52S
VL: B2 VL
notes: as for B1

molecular target: T1, rhesus CD11a; test: rhesus PBL binding

| Binder | Var.EC50/HuIgG1 EC50 [ratio] |
| --- | --- |
| B1 | 3.3 |
| B2 | 0.7 |
| B3 | 3.3 |
| B4 | 2.9 |
| B5 | 2.7 |
| B6 | 1.3 |
| B7 | 5.5 |
| B8 | 1.1 |
| B9 | 5.3 |
| B10 | 0.7 |
| B11 | 1 |
| B12 | 4.9 |
| B13 | 1.1 |
| B14 | 1.2 |
| B15 | 2.4 |

molecular target: T2, human CD11a (human, UniProt P20701 26-1170); test: FACScan, Jurkat cells
T2 construct: whole, on cells; On Jurkat T-cells or human peripheral blood mononuclear cells, as part of LFA-1; also called CD11a on Jurkat cells; alpha subunit of LFA-1
Protocol: Aliquots of 10⁶ Jurkat T-cells were incubated with serial dilutions of humanized and control antibodies in PBS-0.1% BSA-10 mM sodium azide for 45 min at 4° C. The cells were washed and then incubated in fluorescein-conjugated goat anti-human F(ab′)₂ (Organon Teknika, Westchester, Pa.) for 45 min at 4° C. Cells were washed and analysed on a FACScan (Becton Dickinson, Mountain View, Calif.). 8×10³ cells were acquired by list mode and gated by forward light scatter versus side light scatter, thereby excluding dead cells and debris.
To determine which CDR residues were involved in binding to human CD11a an alanine-scan (Cunningham et al., Science 244:1081 (1989)) was performed on the CDR residues of HuIgG1. Each mutant was tested for binding to CD11a on Jurkat cells. In the light chain only CDR-L3 contributes to binding.

| Binder | Var.EC50/HuIgG1 EC50 [ratio] |
| --- | --- |
| B1 | 3.3 |
| B16 | 2.1 |
| B2 | 1.5 |
| B17 | 2.3 |
| B3 | 1.1 |
| B4 | 1.7 |
| B18 | 5.2 |
| B5 | 1.2 |
| B6 | 4.6 |
| B19 | 7.6 |
| B7 | 4.6 |
| B8 | 0.8 |
| B9 | 4.1 |
| B10 | 0.9 |
| B20 | 2.3 |
| B21 | 1.1 |
| B22 | 1.4 |
| B23 | 11.8 |
| B11 | 1.3 |
| B24 | 1.4 |
| B12 | 1.8 |
| B13 | 1.9 |
| B25 | 5.9 |
| B26 | 1.1 |
| B27 | 34.7 |
| B28 | 6.9 |
| B29 | 10.9 |
| B14 | 2.5 |
| B15 | 1.2 |
| B30 | 5 |
